Key:
[1] = tested on: polarized colon cancer T84 cells; test: Transepithelial electrical resistance (TEER) on polarized T84 cells; type: cell-based; settings: for Effect on the TEER: added for 1 hour to the apical side of transwell cultures; for TEER compared to JO-1: dimeric affinity-enhanced mutants, TEER at 4 hours
Procedure: (§1) FIG. 5A-5B. Correlation of reduced DSG2 binding with the ability to open epithelial junctions. FIG. 5A) Transepithelial electrical resistance (TEER) measured on polarized colon cancer T84 cells. Cells were cultured in transwell chambers until the TEER was constant, i.e. tight junctions had formed. A total of 5 μg of dimeric Ad3 fiber knobs in PBS was then added for 1 hour to the apical chamber. TEER was measured at the indicated time points. N=6. For time points 1.5 and 4 hours the difference between JO-1 vs D261N and N186D was significant (p<0.01). The arrows indicate the addition and removal of Ad3 fiber knobs. FIG. 5B) Enhancement of irinotecan therapy. A total of 4×10^6 A549 cells were injected subcutaneously into CB17-SCID/beige mice. Once the tumor reached a volume of ˜100 mm^3 (day 15 after implantation), the mice were injected intravenously with 2 mg/kg JO-1, E299V, N186D, or PBS, followed by an intravenous injection of irinotecan (37.5 mg/kg) one hour later. The treatment was repeated on day 25. N=5. […] The difference between “irinotecan” vs “JO-1+irinotecan” was significant (p<0.01) from day 20 on.
FIG. 9A1-9C. Analysis of dimeric Ad3 fiber knob mutants with increased affinity to DSG2. FIG. 9A1-9A2) Competition of Ad3-GFP virus infection on HeLa cells with dimeric affinity-enhanced mutant Y250F and JO-1 (dimeric wt Ad3 fiber knob). The experimental setting is as described for FIG. 3C. FIG. 9A1) percentage of GFP positive cells. FIG. 9A2) mean fluorescence intensity. N=3. The standard deviation was less than 10%. FIG. 9B1-9B2) Competition of Ad3-GFP virus infection on HeLa cells by Ad3 knob mutants with enhanced DSG2 binding but without dimerization domain. 1.5×10^5 HeLa cells were seeded into 24 well plates. Cells were incubated with the Ad3 knob mutants at the increasing concentrations for one hour at room temperature. 100 pfu/cell of Ad3GFP virus were then added and GFP expression was analyzed 18 hours later. FIG. 9B1) % of GFP+cells; FIG. 9B2) MFI. FIG. 9C) TEER on colon cancer T84 cells. The experimental setting was the same as for FIG. 5A. The TEER at 4 hours is shown. N=3.
Permeability assay. A total of 5×10^5 T84 cells were seeded in 12 mm transwell inserts (PET membrane, with 0.4 μm pore size (Corning, NY) and cultured for >14 days until transepithelial electrical resistance (TEER) was stable. Culture medium was changed every 2-3 days. The cells were exposed to DSG2 ligands (20 μg/ml) in adhesion medium (DMEM, 1% FBS, 2 mM MgCl2, 20 mM HEPES) for 15 min at room temperature and TEER was measured and calculated as described elsewhere (39).

A549 xenograft tumors = test: Enhancement of irinotecan therapy in A549 xenograft tumors; type: in vivo, CB17-SCID/beige mice; settings: 2 mg/kg i.v. one hour before irinotecan 37.5 mg/kg i.v.; tumor volume
Procedure: as §1
FIG. 10A-10C. Combination of affinity-enhanced JO-1 versions with chemotherapy. FIG. 10A) Enhancement of irinotecan (I) therapy. The experimental setting was the same as in FIG. 5B. […] N=5. […] Mammary fat pad tumors were established from primary ovarian cancer ovc316 cells. Treatment was started when tumors reached a volume of 100 mm^3. Mice were injected intravenously with 2 mg/kg JO-1 or with 0.5 mg/kg JO-4, followed by an intravenous injection of PEGylated liposomal doxorubicin (PLD) (1 mg/kg) one hour later. Treatment was repeated weekly. […] A total of 4×10^6 TNBC MDA-MB-231 cells were injected into the mammary fat pad of CB17 SCID-beige mice. JO-4 (2 mg/kg) was intravenously injected 1 hour before the application of cetuximab (C) (10 mg/kg, i.p.) and nab-paclitaxel (nab-P) (5 mg/kg, i.v.). Treatment was given weekly. N=10 P<0.01 at day 25 for nab-P+C vs JO-4+nab-P+C.
A549, MDA-MB-231, and ovc316 xenograft tumors were established by injection of the corresponding tumor cells into the mammary fat pad (1:1 with Matrigel) of CB17 mice. TC1-DSG2 tumors were established by subcutaneous injection of TC1-DSG2 cells into DSG2 transgenic mice. JO-0, JO-1, JO-2, or JO-4 were intravenously injected one hour before the application of chemotherapeutic drugs: Irinotecan/Camptosar™ (Pfizer Inc., Groton, CT), PEGylated liposomal doxorubicin/Lipodox™ (Sun Pharmaceuticals IN, India), cetuximab/Erbitux™ (ImClone, Somerville, NJ), nanoparticle albumin conjugated paclitaxel/Abraxane” (Abraxis Biosciences, Summit, NJ). Tumor volumes were measured three times a week. Each treatment group consisted of a minimum of 5 mice.

Molecule | Effect on the TEER [1] | Enhancement of irinotecan therapy (A549 xenograft tumors) | TEER compared to JO-1 [1]
N186D (protein) MKVSALKEKVSALKEKVSALKEKVSALKEKVSALKEGSGGGSGGGSGGGSNSIALKNNTLWTGPKPEANCIIEYGKQNPDSKLTLILVKNGGIVNGYVTLMGASDYVNTLFKDKNVSINVELYFDATGHILPDSSSLKTDLELKYKQTADFSARGFMPSTTAYPFVLPNAGTHNENYIFGQCYYKASDGALFPLEVTVMLNKRLPDSRTSYVMTFLWSLNAGLAPETTQATLITSPFTFSYIREDD | intermediate effects | not significant | –
V239D (protein) MKVSALKEKVSALKEKVSALKEKVSALKEKVSALKEGSGGGSGGGSGGGSNSIALKNNTLWTGPKPEANCIIEYGKQNPDSKLTLILVKNGGIVNGYVTLMGASDYVNTLFKNKNVSINVELYFDATGHILPDSSSLKTDLELKYKQTADFSARGFMPSTTAYPFDLPNAGTHNENYIFGQCYYKASDGALFPLEVTVMLNKRLPDSRTSYVMTFLWSLNAGLAPETTQATLITSPFTFSYIREDD | – | – | significantly higher
K217E+F224S (protein) MKVSALKEKVSALKEKVSALKEKVSALKEKVSALKEGSGGGSGGGSGGGSNSIALKNNTLWTGPKPEANCIIEYGKQNPDSKLTLILVKNGGIVNGYVTLMGASDYVNTLFKNKNVSINVELYFDATGHILPDSSSLKTDLELEYKQTADSSARGFMPSTTAYPFVLPNAGTHNENYIFGQCYYKASDGALFPLEVTVMLNKRLPDSRTSYVMTFLWSLNAGLAPETTQATLITSPFTFSYIREDD | – | – | significantly higher
E299V (protein) MKVSALKEKVSALKEKVSALKEKVSALKEKVSALKEGSGGGSGGGSGGGSNSIALKNNTLWTGPKPEANCIIEYGKQNPDSKLTLILVKNGGIVNGYVTLMGASDYVNTLFKNKNVSINVELYFDATGHILPDSSSLKTDLELKYKQTADFSARGFMPSTTAYPFVLPNAGTHNENYIFGQCYYKASDGALFPLEVTVMLNKRLPDSRTSYVMTFLWSLNAGLAPVTTQATLITSPFTFSYIREDD | intermediate effects | not significant | –

Reference: patent US12466859B2, “Desmoglein 2 (DSG2) binding proteins and uses therefor” (UNIVERSITY OF WASHINGTON THROUGH ITS CENTER FOR …, priority 2013, dated 2025)
